For test [1], the target named is T1, ACVR2B-ECD (used in SPR) (UniProt Q13705 19-137).
T1 construct: also called ACVR2B extracellular domain (ECD)
T1 sequence (looked up): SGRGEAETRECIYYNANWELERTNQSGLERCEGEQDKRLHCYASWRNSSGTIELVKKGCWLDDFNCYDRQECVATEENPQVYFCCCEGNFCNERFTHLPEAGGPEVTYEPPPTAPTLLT
Description: SPR; activin A, TGF-β3 or BMP2 immobilised on a CM4 chip (EDC-NHS, up to 400 RU); antibodies or control binders flowed over; BIAcore T200; 10 mM CHES, 150 mM NaCl, 3 mM EDTA, 0.01% P20, pH 8.0; 1:1 kinetic model. The note with it: both partners purified. For orientation: SPR reads the build-up and loss of mass on a sensor chip optically.

The target of test [2] is T2, Noggin (UniProt Q13253 28-232).
T2 construct: Noggin, bought from Peprotech; source: bought: Peprotech
T2 sequence (looked up): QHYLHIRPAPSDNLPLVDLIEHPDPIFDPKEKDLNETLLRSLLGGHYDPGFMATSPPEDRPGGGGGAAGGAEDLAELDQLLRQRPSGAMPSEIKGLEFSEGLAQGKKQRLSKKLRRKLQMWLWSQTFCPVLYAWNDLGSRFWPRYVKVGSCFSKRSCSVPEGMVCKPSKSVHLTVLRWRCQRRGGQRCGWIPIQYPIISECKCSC
The test is described as above. The note with it: both partners purified.

Broadly, the Kd is the constant that tells how readily two partners part at equilibrium. Read a high Kd as lower affinity.

B1: activin A (immobilised on the SPR chip) (ligand, UniProt P08476 311-426, looked up)
chain: GLECDGKVNICCKKQFFVSFKDIGWNDWIIAPSGYHANYCEGECPSHIAGTSGSSLSFHSTVINHYRMRGHSPFANLKSCCVPTKLRPMSMLYYDDGQNIIKKDIQNMIVEECGCS
With B1, in test [1], binding was characterised by a dissociation constant (Kd) of 114 nM.

B2: BMP2 (ligand, UniProt P12643 283-396, looked up)
chain: QAKHKQRKRLKSSCKRHPLYVDFSDVGWNDWIVAPPGYHAFYCHGECPFPLADHLNSTNHAIVQTLVNSVNSKIPKACCVPTELSAISMLYLDENEKVVLKNYQDMVVEGCGCR
notes: BMP2, bought from Peprotech; source: bought: Peprotech
As for B2, in test [2], the affinity, expressed as Kd, was 1.26 nM.

These data come from paper doi:10.1101/2025.06.13.659133, “Anti-activin treatment increases T cell infiltration in breast and pancreatic tumours and promotes survival in a SMAD4-null mouse pancreatic cancer model” (bioRxiv, 2025).
